Positions count from the first letter of the chain named. Names may count otherwise.

One may read the Kd as the free concentration of one partner at which half of the binding sites on the other are occupied at equilibrium, for simple one-to-one binding. Lower therefore signals higher affinity.

Test [1] deals with T1, human CD86-murine Ig fusion protein (human).
T1 construct: Bought (Ancell #509-820); also called hCD86-mIg
T1 chain: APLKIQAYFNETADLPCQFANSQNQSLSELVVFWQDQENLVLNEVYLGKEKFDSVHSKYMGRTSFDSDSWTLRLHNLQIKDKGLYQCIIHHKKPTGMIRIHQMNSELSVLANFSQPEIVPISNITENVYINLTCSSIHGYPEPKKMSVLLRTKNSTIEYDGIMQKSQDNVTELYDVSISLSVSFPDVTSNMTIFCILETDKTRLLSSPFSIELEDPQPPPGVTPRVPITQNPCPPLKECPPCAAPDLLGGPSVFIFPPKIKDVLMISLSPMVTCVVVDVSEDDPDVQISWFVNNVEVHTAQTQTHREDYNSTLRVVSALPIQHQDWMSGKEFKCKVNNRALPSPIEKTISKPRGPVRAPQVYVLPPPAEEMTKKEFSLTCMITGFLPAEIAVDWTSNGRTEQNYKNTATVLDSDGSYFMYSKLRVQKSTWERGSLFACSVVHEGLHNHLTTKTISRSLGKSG
Briefly: SPR Biacore, hCD86-mIg captured. The protocol: (§1) All Biacore™ analyses were performed on a Biacore™ 2000 system (GE Healthcare) at room temperature (RT, 25° C.). HBS-EP buffer (10 mM HEPES (pH 7.4), 150 mM NaCl, 3 mM EDTA, 0.005% surfactant P20) was used as the flow buffer for all experiments.
(§2) Rabbit anti-mouse IgG antibody (GE Healthcare, #BR-1005-14) was immobilized on CM5 sensor chips (GE Healthcare, #BR-1000-14) according to the manufacturer's protocol. Antibody was diluted to 30 μg/ml in immobilization buffer (10 mM sodium acetate, pH 5.0 (BR-1003-51)). At a flow rate of 5 μl/minute, sensor chip CM5 was activated with a 35 μl injection of a mixture of 1-Ethyl-3-[3-dimethylaminopropyl]carbodiimide hydrochloride (EDC) and N-hydroxysuccinimide (NHS) (made by mixing equal volumes of 11.5 mg/ml EDC and 75 mg/ml NHS) (GE Healthcare, #BR-1000-50), followed by a 35 μl injection of undiluted antibody. Un-reacted sites were quenched with 35 μl of 1M ethanolamine-HCL, pH 8.5 (GE Healthcare, #BR-1000-50). […] CTLA-4 ligands human CD80-murine Ig (hCD80-mIg) (Ancell, #510-820) or human CD86-murine Ig (hCD86-mIg) (Ancell, #509-820) were bound to antibody-coated sensor chips by injection of 10 μl or 16 μl, respectively, ligand solution (2 μg/ml protein in HBS-EP buffer [10 mM HEPES pH 7.4, 150 mM NaCl, 3 mM EDTA, 0.005% (v/v) surfactant P-20, GE Healthcare, #BR-1001-88]) at a flow rate of 10 μl/min.

The target of test [2] is T2, human CD80-murine Ig fusion protein (human).
T2 construct: Bought (Ancell #510-820); also called hCD80-mIg; human CD80-murine IgG
T2 chain: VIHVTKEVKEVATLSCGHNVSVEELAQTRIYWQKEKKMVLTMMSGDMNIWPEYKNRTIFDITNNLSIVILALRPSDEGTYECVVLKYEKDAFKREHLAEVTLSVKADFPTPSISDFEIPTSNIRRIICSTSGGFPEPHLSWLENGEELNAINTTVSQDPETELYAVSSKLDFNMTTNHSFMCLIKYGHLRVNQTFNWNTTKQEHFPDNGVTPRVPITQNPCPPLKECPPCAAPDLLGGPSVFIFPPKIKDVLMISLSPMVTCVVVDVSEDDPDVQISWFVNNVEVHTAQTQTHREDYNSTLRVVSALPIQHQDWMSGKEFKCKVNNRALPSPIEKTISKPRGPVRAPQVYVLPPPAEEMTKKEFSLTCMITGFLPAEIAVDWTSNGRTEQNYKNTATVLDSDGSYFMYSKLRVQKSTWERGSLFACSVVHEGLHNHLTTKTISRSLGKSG
Briefly: SPR Biacore, hCD80-mIg captured. As to the method: as §1, §2

B1: D1T-IgG2 (Fc fusion)
chain: MHVAQPAVVLASSRGIASFVCEYESPHKANEIRVTVLRQANSQVTEVCAMTYMKGDELTFLDDPFCTGTFSGNQVNLTIQGLRAADTGLYICKVELMYPPPYYLGIGNGTQIYVIDPEPCPDSDERKCCVECPPCPAPPVAGPSVFLFPPKPKDTLMISRTPEVTCVVVDVSHEDPEVQFNWYVDGVEVHNAKTKPREEQFNSTFRVVSVLTVVHQDWLNGKEYKCKVSNKGLPAPIEKTISKTKGQPREPQVYTLPPSREEMTKNQVSLTCLVKGFYPSDIAVEWESNGQPENNYKTTPPMLDSDGSFFLYSKLTVDKSRWQQGNVFSCSVMHEALHNHYTQKSLSLSPG
In the case of B1, the dissociation constant (Kd) in test [1] lay within 0.262 to 0.523 nM. Further, in test [2], the “Binding Avidity (Relative to Orencia)” value was > 2 fold and the Kd was < 0.439 nM.

B2: D3-74-IgG2 (Fc fusion)
chain: B1 chain with E24A, H27G, N41D, D56N, F65I, A85M, L104E
Consider B2, for which, in test [1], the “Binding Avidity (Relative to Orencia)” value was > 40 fold and the equilibrium dissociation constant (Kd) is < 0.131 nM. In test [2], the “Binding Avidity (Relative to Orencia)” value is > 2 fold and the dissociation constant Kd is < 0.439 nM.

B3: D23-IgG2 (Fc fusion)
chain: B1 chain with E24S, S25A, K28N, N30A, Q39K, N41G, G55E, F65S, I106L
As to B3, in test [1], the “Binding Avidity (Relative to Orencia)” value was > 40 fold and the Kd is < 0.131 nM. For the same molecule, in test [2], the “Binding Avidity (Relative to Orencia)” value was > 2 fold and the dissociation constant (Kd) was < 0.439 nM.

B4: D3-22-IgG2 (Fc fusion)
chain: B1 chain with H27G, N41G, D56N, F65S, A85M
With B4, the Kd in test [1] was 0.131 to 0.262 nM; in test [2], 0.439 to 1.75 nM.

B5: D26-IgG2 (Fc fusion)
chain: B1 chain with S25A, I32V, Q39E, N41G, K54V, G55E, F65S, I106L
Regarding B5, in test [1], the “Binding Avidity (Relative to Orencia)” value is > 40 fold. For the same molecule, the Kd in test [1] was < 0.131 nM; in test [2], 0.439 to 1.75 nM.

B6: D20-IgG2 (Fc fusion)
chain: B1 chain with N30T, N41D, K54M, G55E, F65I, A85M
For the molecule B6, the figures for the Kd in test [1] and in test [2] were 0.131 to 0.262 nM and 0.439 to 1.75 nM, respectively.

B7: D3-28-IgG2 (Fc fusion)
chain: B1 chain with H27G, N41D, D56N, F65I, A85M
In the case of B7, the equilibrium dissociation constant (Kd) lay in the range of 0.262 to 0.523 nM in test [1] and 0.439 to 1.75 nM in test [2].

B8: D3-24-IgG2 (Fc fusion)
chain: B1 chain with H27G, N41G, D56N, F65S, A85M, I106F
As to B8, the Kd in test [1] fell in the range of 0.131 to 0.262 nM; in test [2], 0.439 to 1.75 nM.

B9: D3-9-IgG2 (Fc fusion)
chain: B1 chain with H27G, N41G, F65I, I106F
Consider B9, for which, in test [1], the “Binding Avidity (Relative to Orencia)” value is > 40 fold and the Kd is < 0.131 nM. The molecule also had a Kd in test [2] of 0.439 to 1.75 nM.

B10: D4-IgG2 (Fc fusion)
chain: B1 chain with E24S, H27G, N30D, N41S, K54E, F65T, A85V, I106F
notes: also called clone D4
On to B10, for which the figures for the Kd in test [1] and in test [2] were 0.523 to 2.65 nM and 0.439 to 1.75 nM, respectively.

B11: D3-16-IgG2 (Fc fusion)
chain: B1 chain with H27G, N41G, F65S, A85M
As to B11, in test [1], the “Binding Avidity (Relative to Orencia)” value was > 40 fold and the Kd was < 0.131 nM. The molecule further returned a Kd in test [2] of 0.439 to 1.75 nM.

B12: D21-IgG2 (Fc fusion)
chain: MHVAQPAVVLASSRGIASFVCEYSAPHNADEIRVTVLRKASSQVTEVCAMTYMEEDELTFLDDPTCTGTFSGNQVNLTIQGLRAVDTGLYICKVELMYPPPYYLGFGNGTQIYVIDPEPCPDSDERKCCVECPPCPAPPVAGPSVFLFPPKPKDTLMISRTPEVTCVVVDVSHEDPEVQFNWYVDGVEVHNAKTKPREEQFNSTFRVVSVLTVVHQDWLNGKEYKCKVSNKGLPAPIEKTISKTKGQPREPQVYTLPPSREEMTKNQVSLTCLVKGFYPSDIAVEWESNGQPENNYKTTPPMLDSDGSFFLYSKLTVDKSRWQQGNVFSCSVMHEALHNHYTQKSLSLSPG
Regarding B12, the dissociation constant (Kd) in test [1] fell in the range of 0.131 to 0.262 nM; in test [2] it was 0.439 to 1.75 nM.

B13: D3-21-IgG2 (Fc fusion)
chain: B1 chain with H27G, N41D, D56N, F65S, A85M, I106F
Turning to B13, the Kd fell in the range of 0.131 to 0.262 nM in test [1] and 0.439 to 1.75 nM in test [2].

B14: D3-19-IgG2 (Fc fusion)
chain: B1 chain with H27G, N41D, D56N, F65S
With B14, the Kd in test [1] is 0.131 to 0.262 nM; in test [2], 0.439 to 1.75 nM.

B15: D6-IgG2 (Fc fusion)
chain: B1 chain with E24A, H27G, N30T, N41D, K54M, F65I, A85M
On to B15, for which the results for the dissociation constant (Kd) in test [1] and in test [2] were 0.523 to 2.65 nM and 0.439 to 1.75 nM, respectively.

B16: D3-7-IgG2 (Fc fusion)
chain: B1 chain with H27G, N41G, D56N, F65S, I106F
notes: also called D3-07
B16: in test [1], the “Binding Avidity (Relative to Orencia)” value was > 40 fold and the equilibrium dissociation constant (Kd) was < 0.131 nM. In addition, the Kd in test [2] fell in the range of 0.439 to 1.75 nM.

B17: D3-1-IgG2 (Fc fusion)
chain: B1 chain with E24A, H27G, N41G, F65S, I106F
B17: in test [1], the “Binding Avidity (Relative to Orencia)” value was > 40 fold and the Kd was < 0.131 nM. Further, the equilibrium dissociation constant (Kd) in test [2] is 0.439 to 1.75 nM.

B18: D3-26-IgG2 (Fc fusion)
chain: B1 chain with E24A, H27G, N41D, D56N, F65S, A85M
B18: the dissociation constant (Kd) was in the range of 0.131 to 0.262 nM in test [1] and 0.439 to 1.75 nM in test [2].

B19: D3-23-IgG2 (Fc fusion)
chain: B1 chain with H27G, N41D, D56N, F65S, I106F
As for B19, the dissociation constant Kd lay within 0.131 to 0.262 nM in test [1] and 0.439 to 1.75 nM in test [2].

B20: D3-76-IgG2 (Fc fusion)
chain: B1 chain with E24A, H27G, I32V, N41D, G55E, F65I, A85M
As for B20, the “Binding Avidity (Relative to Orencia)” value in test [1] is > 40 fold. The dissociation constant Kd in test [1] is < 0.131 nM; in test [2], 0.439 to 1.75 nM.

B21: D3-8-IgG2 (Fc fusion)
chain: B1 chain with H27G, N41G, P64S, F65S, I106F
Regarding B21, the results for the dissociation constant (Kd) in test [1] and in test [2] were 0.131 to 0.262 nM and 0.439 to 1.75 nM, respectively.

B22: D3-32-IgG2 (Fc fusion)
chain: B1 chain with H27G, Q39K, N41D, F65S
As to B22, the “Binding Avidity (Relative to Orencia)” value in test [1] is > 40 fold. Besides, the equilibrium dissociation constant (Kd) in test [1] is < 0.131 nM; in test [2], 0.439 to 1.75 nM.

B23: D3-25-IgG2 (Fc fusion)
chain: B1 chain with H27G, N41G, D56N, F65S
On to B23, for which the Kd in test [1] was 0.131 to 0.262 nM; in test [2] it was 0.439 to 1.75 nM.

B24: D3-66-IgG2 (Fc fusion)
chain: B1 chain with E24A, H27G, I32V, N41D, F65I, A85M, L104E
Regarding B24, in test [1], the “Binding Avidity (Relative to Orencia)” value is > 40 fold and the Kd is < 0.131 nM. For the same molecule, in test [2], the “Binding Avidity (Relative to Orencia)” value was > 2 fold and the Kd was < 0.439 nM.

B25: D3-5-IgG2 (Fc fusion)
chain: B1 chain with H27G, N41G, M50A, F65S, I106F
B25: the dissociation constant Kd in test [1] lay in the range of 0.131 to 0.262 nM; in test [2], 0.439 to 1.75 nM.

B26: D3-30-IgG2 (Fc fusion)
chain: B1 chain with H27G, N41D, F65I, A85M
For B26, the Kd lay in the range of 0.131 to 0.262 nM in test [1] and 0.439 to 1.75 nM in test [2].

B27: D24-IgG2 (Fc fusion)
chain: B1 chain with H27G, Q39K, N41G, G55E, F65S, I106L
As for B27, in test [1], the “Binding Avidity (Relative to Orencia)” value is > 40 fold and the dissociation constant (Kd) was < 0.131 nM. Further, the Kd in test [2] lay in the range of 0.439 to 1.75 nM.

B28: D3-33-IgG2 (Fc fusion)
chain: B1 chain with H27G, Q39K, N41D, G55E, F65S
As to B28, the “Binding Avidity (Relative to Orencia)” value in test [1] is > 40 fold. Further, the Kd was < 0.131 nM in test [1] and 0.439 to 1.75 nM in test [2].

B29: D5-IgG2 (Fc fusion)
chain: B1 chain with E24A, H27G, N30T, I32V, N41D, M50A, K54M, F65I, A85M
As for B29, the Kd in test [1] is 0.523 to 2.65 nM; in test [2] it was 0.439 to 1.75 nM.

The record behind these values is patent US20110177071A1 (PERSEID THERAPEUTICS, published 2011).
